Test results taken from US20100196361A1, “Method of inhibition of vascular development using an antibody” (DYAX CORP., priority 2003, published 2010).
Read-outs that look alike come from different tables or passages of the source.

T1: mouse Tie1 Fc (Mus musculus, UniProt Q06806)
T1 construct: both dimeric (Tie1-Fc fusion protein) and monomeric (Tie1-HIS) versions of the extracellular domain of the Tie1 were used
T1 sequence (Q06806 23-755 limits assumed): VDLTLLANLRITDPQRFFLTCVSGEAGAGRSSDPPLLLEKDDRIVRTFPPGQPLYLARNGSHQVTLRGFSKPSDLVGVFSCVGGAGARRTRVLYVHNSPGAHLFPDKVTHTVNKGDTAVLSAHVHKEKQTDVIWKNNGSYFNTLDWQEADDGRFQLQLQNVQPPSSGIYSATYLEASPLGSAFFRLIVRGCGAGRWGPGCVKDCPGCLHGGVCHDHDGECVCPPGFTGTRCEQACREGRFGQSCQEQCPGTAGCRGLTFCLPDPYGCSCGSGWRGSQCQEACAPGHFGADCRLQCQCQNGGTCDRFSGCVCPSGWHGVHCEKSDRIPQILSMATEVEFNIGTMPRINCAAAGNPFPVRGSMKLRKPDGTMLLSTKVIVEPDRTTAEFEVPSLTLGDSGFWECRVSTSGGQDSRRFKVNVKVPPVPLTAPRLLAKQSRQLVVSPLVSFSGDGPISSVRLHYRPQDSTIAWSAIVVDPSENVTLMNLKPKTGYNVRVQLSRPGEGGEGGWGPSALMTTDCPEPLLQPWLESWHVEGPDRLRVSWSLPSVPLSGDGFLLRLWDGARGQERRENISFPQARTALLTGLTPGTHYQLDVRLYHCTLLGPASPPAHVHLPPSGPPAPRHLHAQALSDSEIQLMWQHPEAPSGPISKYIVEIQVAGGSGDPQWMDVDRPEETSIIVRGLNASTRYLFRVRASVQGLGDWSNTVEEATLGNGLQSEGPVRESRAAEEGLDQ

B1: E3: human anti-Tie1 antibody from phage Fab library, reformatted as IgG; HC variable SEQ ID NO:114, LC variable SEQ ID NO:116 (antibody, V domains shown)
VH: EVQLLESGGGLVQPGGSLRLSCAASGFTFSMYGMVWVRQAPGKGLEWVSVISPSGGNTGYADSVKGRFTISRDNSKNTLYLQVNSLRAEDTAVYYCARAPRGYSYGYYYWGQGTLVTVSSASTKGPSVFPLAPSSKSTSGG
VL: DIQMTQSPLSLSASVGDRVTITCRASQGIGHYLAWYQQKPGKVPKLLIYTASTLQSGVPSRFSGSGSGTDFTLTINSLQPEDVATYYCQQFNSYPHTFGQGTRLDIK
modifications: IgG constant regions; Synthetically generated peptide
B2: DX-2210: E3 antibody in which the light chain has been germlined (antibody, V domains shown)
VH: EVQLLESGGGLVQPGGSLRLSCAASGFTFSMYGMVWVRQAPGKGLEWVSVISPSGGNTGYADSVKGRFTISRDNSKNTLYLQVNSLRAEDTAVYYCARAPRGYSYGYYYWGQGTLVTVSSASTKGPSVFPLAPSSKSTSGG
VL: DIQMTQSPSSLSASVGDRVTITCRASQGIGHYLAWYQQKPGKVPKLLIYTASTLQSGVPSRFSGSGSGTDFTLTISSLQPEDVATYYCQQFNSYPHTFGQGTRLEIK

Experiments:
mouse Tie1 Fc = target: T1, mouse Tie1 Fc; assay: BIAcore, mouse Tie1 Fc over IgG coated on CM5 chip; format: binding; conditions: IgG immobilised; Mouse Tie1 Fc analyte
Procedure: In order to evaluate if the binding behavior had been affected in any way by the conversion of the somatic mutations back to germline, the germlined antibody was produced and tested as an IgG. The germlined E3 was reformatted to an IgG as described. This was then used to transiently transfect HEK293T cells using established procedures. The IgG was purified from the culture supernatant using protein A column chromatography using established procedures and the subsequent IgG was then tested for binding activity using surface plasmon resonance (BIAcore). The germlined E3 IgG1 stock solution 0.63 mg/ml (2146-002) was diluted 1/50 in a buffer of pH 4.5 and the parental E3 IgG1 stock solution 0.56 mg/ml (2143-001) was diluted 1/50 in a buffer of pH 4.5. The IgG were directly coated via onto a CM5 chip. The surface of the chips was activated with a 7 minute pulse of 0.05M NHS/0.2M EDC and the IgG was flowed over until 780RU germlined E3-IgG and 728 non germlined E3 IgG was coated onto the surface. All flow cells were subsequently deactivated with a 7 minute pulse of 1M ethanolamine hydrochloride pH8,5. All analysis was performed in HBS buffer. Purified recombinant mouse Tie1 Fc was diluted 1/6,5 in HBS to obtain a 400 nM stock solution. Serial dilutions were made to obtain 200 nM, 100 nM, 50 nM and 25 nM Tie1 Fc stocks. For analysis of the association phase samples were injected at 30 μl/min for 8.3 minutes using kinject program. This was followed by a 40 minutes dissociation phase. Any antigen remaining associated to the surface was stripped from the IgG surface at a flow of 50 μl/min with two injections of 10 mM glycine pH1.5 for 30 seconds. All samples were run and analyzed in duplicate
Sensorgrams were analyzed using the simultaneous ka/kd fitting program with 1:1 model in the BIAEVALUATION™ software 3.1.

[1] = system: bFGF-induced angiogenesis; assay: […] plug assay in vivo; set-up: species or system mouse
Procedure: The germlined variant of the E3 IgG antibody was evaluated in an in vivo assay for angiogenesis induced by bFGF in […]™ plugs. Growth factor reduced […]™ (BD Biosciences, catalog #354230) was supplemented with 80 ng/ml of bFGF (R&D Systems, catalog #234-FSE). The A2-SV or an IgG4 E3 antibody (10 μg/ml) or PBS was injected subcutaneously into the abdominal area of NMRI nu/nu mice (150 μl of Matrigel/plug).
In the first assay, two mice were injected with […]™ supplemented with bFGF and soluble VEGFR-1 (10 μg/ml) as a positive control for an angiogenic inhibitor. At day 7 post-implantation mice were anesthetized and perfused through heart with 4% paraformaldehyde (PFA) in phosphate buffered saline (PBS). […]™ plugs and a piece of liver were removed and embedded in paraffin. Sections were cut and stained with hematoxylin and eosin (H&E).
In a second assay, mice were treated as described above, and then anesthetized eight days post-implantation and injected with fluorescein-conjugated tomato (lycopersicon esculentum) lectin (100 μg in 200 μl of PBS; Vector, catalog #FL-1171) into the tail vein. After five min circulation the animals were perfused through the heart with 10 ml of PBS followed by 10 ml of 4% PFA in PBS. […]™ plugs and pieces of kidney and liver were removed and frozen in OCT (Tissue-Tek). Nuclei were visualized on sections by using […]® mounting medium containing DAPI (Vector) and analyzed under fluorescence microscopy.
To assess further the potential anti-angiogenic activity of the E3 antibody, a third assay examining the effect of DX-2210 (E3 antibody with germlined light chain) on bFGF-induced endothelial cell tube formation in […]™ plugs was performed. […] In order to quantitate the amount of blood vessels in the […]™ plugs, sections were cut and either stained for endothelial cell content using an anti-CD-31 antibody or analyzed under fluorescence microscopy to assess the amount of functional blood vessels (tomato lectin staining) (data not shown). In addition, the amount of blood vessels per unit area was quantitated.

platelets = assay: Platelet agglutination and aggregation; format: cell-based
Excerpt: It has been reported that Tie1 is expressed on platelets ([…] et al. (2000) J. Vasc. Res. 37(6):437). The possibility of platelet immunoreactivity with the E3 anti-Tie1 antibody was investigated by FACs analysis and immunoprecipitation studies. […] In addition, the effect of DX-2200 and DX-2210 on platelet agglutination and aggregation was investigated. Ristocetin, a cofactor that induces platelet agglutination by mediating the binding of von Willebrand factor (vWF) to platelet membrane glycoprotein GPIb (CD42), was used as a positive control for platelet agglutination.

Molecule | koff (mouse Tie1 Fc) [s⁻¹] | kon (mouse Tie1 Fc) [M⁻¹ s⁻¹] | fluorescein-lectin staining of MATRIGEL plugs ([1]; bFGF, antibody in plug, eight days post-implantation) | induction of platelet agglutination or aggregation (platelets; ristocetin and anti-CD9 as positive controls) | inhibition of bFGF-induced angiogenesis (blood vessels per unit area) ([1]; MATRIGEL with HUVECs and bFGF, Balb/c nu/nu mice, day 8) [%] | H&E staining of MATRIGEL plugs ([1]; bFGF 80 ng/ml, antibody 10 μg/ml in plug, NMRI nu/nu mice, day 7) | induction of platelet agglutination or aggregation (platelets)
B1 | 9.2e-05 | 6170 | no staining could be detected | Neither the DX-2200 nor its light chain germlined variant DX-2210 induced platelet agglutination or aggregation | – | – | –
B2 | 8.99e-05 | 6000 | – | – | 70 | neither modification of the matrix nor organization of the cells observed | Neither the DX-2200 nor its light chain germlined variant DX-2210 induced platelet agglutination or aggregation
